These results are taken from FireProtDB (doi:10.1016/j.jmb.2004.09.091).

The conditions of this series: Dictyostelium discoideum, pH 6.7, Urea, Fluorescence, KH2PO4/K2HPO4 50 mM, reversible: Yes.

Sequence of Hisactophilin-1 wild type (P13231 whole entry, looked up): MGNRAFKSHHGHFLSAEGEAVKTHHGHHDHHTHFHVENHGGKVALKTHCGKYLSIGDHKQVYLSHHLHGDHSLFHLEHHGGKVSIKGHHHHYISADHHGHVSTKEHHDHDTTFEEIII

“Hisactophilin-1 wild type (from UniProt P13231)”: the denaturant m value is 2.66 kcal/mol/M (5 °C); 2.7 kcal/mol/M (15 °C); 2.53 kcal/mol/M (20 °C); 2.51 kcal/mol/M (25 °C); 2.28 kcal/mol/M (30 °C); 2.44 kcal/mol/M (35 °C). The denaturant m value (40 °C) is 2.34 kcal/mol/M and the denaturant m value (45 °C) was determined as 2.24 kcal/mol/M. Also, the “denaturant midpoint (higher = more stable)” value (shortened to “denaturant midpoint”) (5 °C) stood at 2.14 M; the “denaturant midpoint” value (15 °C) was determined as 2.58 M; the “denaturant midpoint” value (20 °C) turned out to be 2.89 M; the “denaturant midpoint” value (25 °C) is 2.91 M; the “denaturant midpoint” value (30 °C) came to 2.95 M; the “denaturant midpoint” value (35 °C) is 2.87 M. For the same substance, the “denaturant midpoint” value stood at 2.63 M (40 °C) and 2.45 M (45 °C). For the same substance, the unfolding free energy came to 5.37 kcal/mol (5 °C); 6.5 kcal/mol (15 °C); 6.71 kcal/mol (20 °C); 6.68 kcal/mol (25 °C); 6.08 kcal/mol (30 °C); 6.43 kcal/mol (35 °C). In addition, the unfolding free energy is 5.67 kcal/mol (40 °C) and 5.05 kcal/mol (45 °C).
